Results as given in patent publication US20070128190A1 (GLENMARK PHARMACEUTICALS S A, published 2007).

T1: GST-human α2 I domain fusion protein (human, UniProt P17301 153-368)
T1 construct: the reverse primer ends at ...SIEGTV; also called GST-α2 I domain; hα2I; not shown: glutathione S-transferase tag encoded by vector pGEX-2TK
T1 sequence: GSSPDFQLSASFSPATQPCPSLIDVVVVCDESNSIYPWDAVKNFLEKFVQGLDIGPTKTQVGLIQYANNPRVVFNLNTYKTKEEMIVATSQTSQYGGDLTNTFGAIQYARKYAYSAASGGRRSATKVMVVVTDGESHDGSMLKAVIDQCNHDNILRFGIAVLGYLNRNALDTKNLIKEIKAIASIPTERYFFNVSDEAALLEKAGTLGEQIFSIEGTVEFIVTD


How the values were obtained:
[1] = target: human α1β1 integrin (immobilized) (human, UniProt P56199 29-1179; P05556 21-798, limits assumed); assay: ELISA on immobilized human α1β1
Description: Human α1β1 integrin (Chemicon International) was diluted in Coating Buffer (25 mM Tris, pH 7.5, 150 mM NaCl, 1 mM MgCl₂) to a final concentration of 0.5 μg/ml. 96-well immunoplates were coated with α1β1 at 50 ng/well and incubated overnight at 4° C. The plates were washed three times with Wash Buffer (50 mM Tris, pH 7.5, 150 mM NaCl, 2 mM MgCl₂, 0.5% Tween-20) and blocked with 5% w/v/skim milk in Wash Buffer for one hour at room temperature. […] Fifty microliters/well of the diluted antibody solutions were added to the α1β1-coated plates, incubated for one hour at room temperature, and then washed three times. […] After a one-hour incubation at room temperature, the plates were washed three times, incubated in substrate solution (1 mg/ml 4-nitrophenyl phosphate, 0.1 M diethanolamine, 5 mM MgCl₂, pH 9.8) for 20 minutes, and terminated with NaOH. The absorbance (405 nm) was read using a Spectramax Plus plate reader using Softmax Pro software. […] The control anti-α1β1 antibody (FB-12) bound to α1β1 with an EC₅₀ of 0.79±0.15 nM.

[2] = target: T2, GST (UniProt P08515 1-218 = GST); assay: GST competing Eu-humanized TMC-2206 off α2β1-coated plate
T2 construct: also called GST fusion protein (negative control)
T2 sequence (P08515 whole entry, the tested form may be a part): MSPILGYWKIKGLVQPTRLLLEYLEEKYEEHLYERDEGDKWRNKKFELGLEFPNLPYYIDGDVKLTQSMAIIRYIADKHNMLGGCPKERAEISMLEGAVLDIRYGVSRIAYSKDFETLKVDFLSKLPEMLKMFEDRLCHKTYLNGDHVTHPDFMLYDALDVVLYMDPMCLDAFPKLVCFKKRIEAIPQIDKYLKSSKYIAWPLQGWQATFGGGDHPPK

[3] = target: T1, GST-human α2 I domain fusion protein; assay: ELISA, GST fusion protein on immobilized TMC-2206 (Kd apparent)
Description: (§1) The fusion proteins were then expressed and purified as described above for the human GST-α2 I domain fusion protein. […] Therefore, these and the primate fusion proteins were further purified by size exclusion chromatography on a Sephadex 75 10/30 (GE-Amersham) column (primate) by FPLC on an Akta-Basic FPLC system (GE-Amersham) to yield a monomeric fraction. […] The Kᵢ assays were performed as described above in Example 2. […] Plates were sealed and coating occurred overnight at 4° C. The next morning, the plates were washed twice with TBS solution and then blocked using 200 μL of the blocking solution described above for 1 hour at room temperature with shaking. After blocking, the blocking solution was removed but the wells were not washed. Instead, a serial dilution of GST fusion protein was made, added to the wells and then incubated for 2 hours at room temperature with shaking. The wells were then aspirated and a TBS washing buffer applied for 5 minutes at room temperature. The washing step was repeated twice more before the secondary antibody was applied. The secondary antibody step consisted of Amersham's HRP-conjugated rabbit anti-GST antibody diluted 1:2000 in blocking buffer. One hundred μL of secondary antibody was added to each well and incubated at room temperature for 1.5 hours with shaking. The wells were again aspirated and washed three times with wash buffer before adding the substrate reaction mixture. One hundred μL of substrate reaction mixture (1:1 dilution of TMB kit) was then added to each well for 6 minutes. The reaction was stopped by adding 100 μL of 0.1M H₂SO₄. The reaction within the wells was then read and quantified by spectrophotometric absorption using the Molecular Dynamics plate reader and associated Softmax software, respectively. Kd values were then estimated from the EC₅₀ values using Prism software (Graphpad, Calif.).

[4] = target: T3, GST-hα2 I domain K78E (human, UniProt P08515 1-218 = GST); assay: as above
T3 construct: same construct as m41
Description: as §1

[5] = target: T4, human platelet α2β1 integrin (immobilized on microtiter plates) (human, UniProt P17301 30-1181; P05556 21-798); assay: competition with Eu-TMC-2206 on human platelet α2β1-coated plate
T4 construct: plates custom-coated with human platelet α2β1 by GTI Inc; also called immobilized α2β1 integrin; α2β1-coated plates
T4 sequence (P17301 30-1181 E534K limits assumed, chain 1 of 2): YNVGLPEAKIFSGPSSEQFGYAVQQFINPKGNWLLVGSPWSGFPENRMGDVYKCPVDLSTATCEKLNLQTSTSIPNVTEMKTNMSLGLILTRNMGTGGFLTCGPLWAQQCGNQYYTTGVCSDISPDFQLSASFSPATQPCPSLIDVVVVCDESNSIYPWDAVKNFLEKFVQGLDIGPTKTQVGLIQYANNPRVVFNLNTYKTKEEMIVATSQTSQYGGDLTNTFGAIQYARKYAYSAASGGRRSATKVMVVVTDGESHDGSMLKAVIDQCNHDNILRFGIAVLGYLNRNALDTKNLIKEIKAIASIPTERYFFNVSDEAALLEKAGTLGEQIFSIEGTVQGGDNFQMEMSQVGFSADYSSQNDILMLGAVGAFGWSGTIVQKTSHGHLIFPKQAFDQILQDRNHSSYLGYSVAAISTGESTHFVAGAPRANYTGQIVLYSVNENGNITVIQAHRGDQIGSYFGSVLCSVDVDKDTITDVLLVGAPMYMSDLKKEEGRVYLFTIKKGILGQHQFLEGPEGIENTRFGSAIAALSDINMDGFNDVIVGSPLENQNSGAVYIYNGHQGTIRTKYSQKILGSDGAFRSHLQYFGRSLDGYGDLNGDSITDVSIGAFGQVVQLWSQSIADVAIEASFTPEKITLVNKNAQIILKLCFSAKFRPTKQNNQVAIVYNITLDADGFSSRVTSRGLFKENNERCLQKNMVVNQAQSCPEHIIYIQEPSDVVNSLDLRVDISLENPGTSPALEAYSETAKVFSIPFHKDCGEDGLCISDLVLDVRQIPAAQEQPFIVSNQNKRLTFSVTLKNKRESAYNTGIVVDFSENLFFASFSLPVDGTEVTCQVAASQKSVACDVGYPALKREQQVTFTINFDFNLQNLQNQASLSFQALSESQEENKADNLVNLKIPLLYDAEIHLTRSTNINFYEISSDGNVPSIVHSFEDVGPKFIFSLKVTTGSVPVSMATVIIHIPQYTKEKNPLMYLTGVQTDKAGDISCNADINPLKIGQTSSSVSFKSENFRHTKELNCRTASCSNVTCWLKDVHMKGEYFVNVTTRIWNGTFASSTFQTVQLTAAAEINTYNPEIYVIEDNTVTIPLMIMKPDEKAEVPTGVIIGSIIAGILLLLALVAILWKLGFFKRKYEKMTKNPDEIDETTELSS
T4 sequence (P05556 21-798 limits assumed, chain 2 of 2): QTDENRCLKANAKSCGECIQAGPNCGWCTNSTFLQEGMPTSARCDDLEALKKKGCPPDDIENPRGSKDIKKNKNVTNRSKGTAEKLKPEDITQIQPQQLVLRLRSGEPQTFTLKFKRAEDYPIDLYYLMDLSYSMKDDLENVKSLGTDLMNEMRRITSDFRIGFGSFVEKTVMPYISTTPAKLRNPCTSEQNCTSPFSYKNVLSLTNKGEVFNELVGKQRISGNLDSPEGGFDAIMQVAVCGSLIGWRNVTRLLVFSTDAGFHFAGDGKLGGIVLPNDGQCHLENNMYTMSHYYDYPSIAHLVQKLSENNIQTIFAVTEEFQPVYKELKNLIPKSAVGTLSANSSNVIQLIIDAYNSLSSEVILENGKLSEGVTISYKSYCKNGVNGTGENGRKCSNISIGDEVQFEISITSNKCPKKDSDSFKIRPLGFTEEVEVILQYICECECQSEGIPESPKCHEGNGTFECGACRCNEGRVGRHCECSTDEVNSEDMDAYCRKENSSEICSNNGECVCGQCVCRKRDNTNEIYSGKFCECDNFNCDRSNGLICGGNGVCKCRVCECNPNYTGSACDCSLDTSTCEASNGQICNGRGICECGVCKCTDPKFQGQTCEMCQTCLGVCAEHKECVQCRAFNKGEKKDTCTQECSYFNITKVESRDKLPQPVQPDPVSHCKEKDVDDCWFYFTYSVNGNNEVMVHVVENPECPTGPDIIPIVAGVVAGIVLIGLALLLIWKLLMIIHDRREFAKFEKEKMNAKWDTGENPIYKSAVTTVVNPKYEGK

[6] = target: T4, human platelet α2β1 integrin …; assay: competition with Eu-TMC-2206 on platelet α2β1-coated plates
[7] = target: human α2β1 integrin on human cells (platelets, leukocytes, HT1080) (human, UniProt P17301 30-1181; P05556 21-798); assay: cell-based or functional assay
Chain of human α2β1 integrin on human cells (platelets, leukocytes, HT1080) (P17301 30-1181 E534K limits assumed, chain 1 of 2): as the sequence (P17301 30-1181 E534K limits assumed, chain 1 of 2) above
Chain of human α2β1 integrin on human cells (platelets, leukocytes, HT1080) (P05556 21-798 limits assumed, chain 2 of 2): as the sequence (P05556 21-798 limits assumed, chain 2 of 2) above

[8] = target: rat α2β1 integrin on rat blood cells (rat, UniProt A0A0G2K470 27-1178; P49134 21-798); assay: cell-based or functional assay
Chain of rat α2β1 integrin on rat blood cells (chain, as listed by the source, chain 1 of 2): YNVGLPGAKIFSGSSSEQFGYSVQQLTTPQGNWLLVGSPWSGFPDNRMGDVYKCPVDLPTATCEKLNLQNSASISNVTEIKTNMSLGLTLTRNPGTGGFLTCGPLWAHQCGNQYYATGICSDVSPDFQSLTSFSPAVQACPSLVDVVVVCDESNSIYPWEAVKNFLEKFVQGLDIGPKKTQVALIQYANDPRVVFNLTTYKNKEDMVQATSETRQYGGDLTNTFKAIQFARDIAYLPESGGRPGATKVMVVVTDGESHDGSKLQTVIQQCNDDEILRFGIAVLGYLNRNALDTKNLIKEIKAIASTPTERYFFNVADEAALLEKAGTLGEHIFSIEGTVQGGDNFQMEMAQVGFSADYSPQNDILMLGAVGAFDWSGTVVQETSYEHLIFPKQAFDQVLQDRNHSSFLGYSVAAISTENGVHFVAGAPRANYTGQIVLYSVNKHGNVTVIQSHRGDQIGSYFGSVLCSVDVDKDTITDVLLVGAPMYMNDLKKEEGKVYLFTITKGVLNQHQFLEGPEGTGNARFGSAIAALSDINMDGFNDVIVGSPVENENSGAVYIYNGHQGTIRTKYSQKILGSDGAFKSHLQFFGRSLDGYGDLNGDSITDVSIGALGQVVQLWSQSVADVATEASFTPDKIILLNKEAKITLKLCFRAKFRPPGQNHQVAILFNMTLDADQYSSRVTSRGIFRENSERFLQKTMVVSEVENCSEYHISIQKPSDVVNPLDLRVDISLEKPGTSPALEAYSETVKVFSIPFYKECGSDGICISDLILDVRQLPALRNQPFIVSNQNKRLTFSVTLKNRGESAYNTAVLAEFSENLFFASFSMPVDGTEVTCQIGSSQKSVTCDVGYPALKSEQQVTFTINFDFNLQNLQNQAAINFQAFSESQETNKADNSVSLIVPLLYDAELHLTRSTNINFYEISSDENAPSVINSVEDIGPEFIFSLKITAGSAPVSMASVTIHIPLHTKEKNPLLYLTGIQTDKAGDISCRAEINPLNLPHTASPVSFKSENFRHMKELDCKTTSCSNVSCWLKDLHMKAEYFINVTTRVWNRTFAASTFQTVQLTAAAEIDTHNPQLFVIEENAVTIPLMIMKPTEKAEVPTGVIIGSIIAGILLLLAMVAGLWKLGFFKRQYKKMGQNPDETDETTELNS
Chain of rat α2β1 integrin on rat blood cells (P49134 21-798, chain 2 of 2): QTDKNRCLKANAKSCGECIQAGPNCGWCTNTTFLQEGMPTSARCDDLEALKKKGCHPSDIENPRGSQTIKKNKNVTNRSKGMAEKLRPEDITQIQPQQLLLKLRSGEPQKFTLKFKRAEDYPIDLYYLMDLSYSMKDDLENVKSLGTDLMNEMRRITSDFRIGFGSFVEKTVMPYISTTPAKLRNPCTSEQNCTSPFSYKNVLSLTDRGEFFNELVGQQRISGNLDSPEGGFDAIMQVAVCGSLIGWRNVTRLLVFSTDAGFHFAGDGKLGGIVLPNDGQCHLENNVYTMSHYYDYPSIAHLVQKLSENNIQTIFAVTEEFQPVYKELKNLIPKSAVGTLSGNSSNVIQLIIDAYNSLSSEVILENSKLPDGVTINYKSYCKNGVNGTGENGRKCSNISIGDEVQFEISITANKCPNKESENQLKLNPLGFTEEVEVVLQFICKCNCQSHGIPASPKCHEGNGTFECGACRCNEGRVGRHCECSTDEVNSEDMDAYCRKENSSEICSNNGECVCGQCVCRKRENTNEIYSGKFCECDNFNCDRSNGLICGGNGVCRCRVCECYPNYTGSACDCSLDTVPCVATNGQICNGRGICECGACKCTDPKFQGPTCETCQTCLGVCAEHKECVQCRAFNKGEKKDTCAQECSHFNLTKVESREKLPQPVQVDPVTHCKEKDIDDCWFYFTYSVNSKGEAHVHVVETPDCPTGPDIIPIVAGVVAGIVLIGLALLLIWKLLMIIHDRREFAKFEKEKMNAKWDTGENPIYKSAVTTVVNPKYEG

[9] = target: human α2 integrin with endogenous hamster β1 on CHO cells (human; hamster); assay: cell-based or functional assay
Chain of human α2 integrin with endogenous hamster β1 on CHO cells (human; hamster) (P17301 30-1181 E534K): as the sequence (P17301 30-1181 E534K limits assumed, chain 1 of 2) above

Binder	binding result [1]	binding result [2]	Kd [3]	Kd [4]	Ki [5]	Ki [6]	EC50 (nM), human platelet adhesion to human collagen Type I, ADP 0 µM [7]	EC50 (nM), human platelet adhesion to human collagen Type I, ADP 20 µM [7]	EC50 (nM), human platelet adhesion to human collagen Type II, ADP 0 µM [7]	EC50 (nM), human platelet adhesion to human collagen Type II, ADP 20 µM [7]	EC50 (nM), human platelet adhesion to human collagen Type III, ADP 0 µM [7]	EC50 (nM), human platelet adhesion to human collagen Type III, ADP 20 µM [7]	EC50 (nM), human platelet adhesion to human collagen Type IV, ADP 0 µM [7]	EC50 (nM), human platelet adhesion to human collagen Type IV, ADP 20 µM [7]	EC50 (nM), human platelet adhesion to human collagen Type VI, ADP 0 µM [7]	EC50 (nM), human platelet adhesion to human collagen Type VI, ADP 20 µM [7]	EC50, inhibiting binding of rat platelets to rat collagen Type I [8]	fold shift, rat compared to human platelets [8]	EC50, inhibition of adhesion of CHO-α2 cells to collagen Type I [9]	EC50, inhibition of cell adhesion to collagen [9]
Humanized TMC-2206 (hIgG4/κ VH12.0/VL10.0Q) (antibody, labelled with Eu or Alexa-488 in some assays) heavy: not shown light: DFVMTQSPAFLSVTPGEKVTITCSAQSSVNYIHWYQQKPDQAPKKLIYDTSKLASGVPSRFSGSGSGTDYTFTISSLEAEDAATYYCQQWTTNPLTFGQGTKVEIKRTVAAPSVFIFPPSDEQLKSGTASVVCLLNNFYPREAKVQWKVDNALQSGNSQESVTEQDSKDSTYSLSSTLTLSKADYEKHKVYACEVTHQGLSSPVTKSFNRGEC	no binding	no binding (tested: 0.4 µM)	–	–	–	–	–	–	–	–	–	–	–	–	–	–	–	–	–	–
TMC-2206 (antibody, mouse IgG1, V domains shown, murine IgG1/κ secreted by hybridoma BHA2.1; labelled with Eu-N1-ITC where used as tracer; also called BHA2.1) VH: QVQLKESGPGLVAPSQSLSITCTVSGFSLTNYGIHWVRQPPGKGLEWLGVIWARGFTNYNSALMSRLIITKDNSQSQVFLKMNSLQPDDSATYFCARANDGVYYAMDYWGQGTSVTVSS VL: QFVLTQSPAFLSASPGEKVTMTCSANSSVNYIHWYQQKSGTSPKKWIYDTSKLASGVPVRFSGSGSGTSYSLTISSMETEDAATYYCQQWTTNPLTFGAGTRVELK	–	–	0.31 nM	0.16 nM	0.28 nM	0.11 nM	1.7 nM	9.5 nM	1.9 nM	27 nM	1.6 nM	11 nM	10 nM	> 1000 nM	2.3 nM	23 nM	6.3 nM	~5 fold	1.2 nM	1.5 nM
